Test results reported in patent US5777085, “Humanized antibodies reactive with GPIIB/IIIA” (Protein Design Labs, Inc., dated 1998).

B1: mouse C4G1 antibody (antibody, V domains shown)
VH: QVQLQQSGAELVGPGTSVRVSCKASGYAFTNYLIEWVKQRPGQGLEWIGVIYPGSGGTNYNEKFKGKATLTVDKSSTTAYMQLSSLTSDDSAVYFCARRDGNYGWFAYWGRGTLVTVSA
VL: DIQMTQTTSSLSASLGDRVTISCRASQDINNYLNWYQQKPDGIVKLLIYYTSTLHSGVPSRFSGSGSGTDYSLTISNLEQEDIATYFCQQGNTLPWTFGGGTKLEIK
B2: mouse C4G1 Fab fragment (Fab, V domains shown)
VH: QVQLQQSGAELVGPGTSVRVSCKASGYAFTNYLIEWVKQRPGQGLEWIGVIYPGSGGTNYNEKFKGKATLTVDKSSTTAYMQLSSLTSDDSAVYFCARRDGNYGWFAYWGRGTLVTVSA
VL: DIQMTQTTSSLSASLGDRVTISCRASQDINNYLNWYQQKPDGIVKLLIYYTSTLHSGVPSRFSGSGSGTDYSLTISNLEQEDIATYFCQQGNTLPWTFGGGTKLEIK
B3: mouse C4G1 F(ab')2 fragment (other)
VH: QVQLQQSGAELVGPGTSVRVSCKASGYAFTNYLIEWVKQRPGQGLEWIGVIYPGSGGTNYNEKFKGKATLTVDKSSTTAYMQLSSLTSDDSAVYFCARRDGNYGWFAYWGRGTLVTVSA
VL: DIQMTQTTSSLSASLGDRVTISCRASQDINNYLNWYQQKPDGIVKLLIYYTSTLHSGVPSRFSGSGSGTDYSLTISNLEQEDIATYFCQQGNTLPWTFGGGTKLEIK
B4: humanized C4G1 antibody (antibody, V domains shown)
VH: QVQLVQSGAEVKKPGSSVKVSCKASGYAFTNYLIEWVRQAPGQGLEWIGVIYPGSGGTNYNEKFKGRVTLTVDESTNTAYMELSSLRSEDTAVYFCARRDGNYGWFAYWGQGTLVTVSS
VL: DIQMTQTPSTLSASVGDRVTISCRASQDINNYLNWYQQKPGKAPKLLIYYTSTLHSGVPSRFSGSGSGTDYTLTISSLQPDDFATYFCQQGNTLPWTFGQGTKVEVKR

Target: GPIIb/IIIa (human, UniProt P08514)
Test: competitive binding on HEL 92.1.7 cells, radioiodinated mouse C4G1 as tracer
Experimental: The affinities of the humanized C4G1 antibody, Fab fragment and F(ab')_2-1 fragment were determined by competitive binding with the respective mouse C4G1 antibody and fragments. Purified human platelets were used as source of the GPIIb/IIIa antigen. The platelets were purified from buffy coats from normal human donors by centrifugation on ficoll-hypaque. Increasing amounts of humanized or mouse competitor antibody or fragment was added to 4.5 ng of radioiodinated tracer C4G1 antibody (3.5 µCi/ug) and incubated with 3×10^7 platelets in 0.2 ml of modified Tyrode's buffer for 1 hr. at room temperature. Cells were washed with 2 ml of ice-cold buffer and pelleted. The radioactivities were measured, and the concentrations of bound and free tracer antibody were calculated (FIG. 8). The binding affinities of the various antibodies and fragments were calculated as in Queen et al., Proc. Nat. Acad. Sci. USA 86, 10029 (1989). […] The same result was obtained when competitive binding was performed with HEL 92.1.7 cells as source of GPIIb/IIIa antigen. Moreover all the actual binding affinities to these cells were about 10^8 M^-1 or higher.

B1 was tested. Which Ka did it give?
Its Ka is ≥ 1e+08 M⁻¹.

With B2 as the binder, how does the Ka read?
The Ka was ≥ 1e+08 M⁻¹.

For B3, which Ka is on record?
Its Ka is ≥ 1e+08 M⁻¹.

B4 was tested. Which Ka did it give?
The Ka was > 1e+08 M⁻¹.
